Results on one substance are retold here after US20040242847A1.

This experiment concerns the target human TPO receptor (MPL) (human) (UniProt P40238). In words: cell-based or functional assay.

Regarding “human TPO (R&D Systems) (from UniProt P40225 22-353) (ligand)”, the proliferation of BaF/mpl cells (WST-8), ED50 was determined as 0.027 nM.
